Measured values as given in US7558625B2, “Combined micro-channel generation and iontophoresis for transdermal delivery of pharmaceutical agents” (TransPharma Medical Ltd., priority 2004, dated 2009).

Assay: Transdermal delivery of hGH by ViaDerm and iontophoresis in anesthetized pigs, plasma hGH
Type: in vivo
Set-up: average AUC: unit: ng×hr/ml
Experimental: ViaDerm applications were performed on 8 adjacent sites on the marginal ear of each of the pigs using 80 μm electrodes and 2 bursts.
2 groups of pigs (males, 10-15 kg, large white) were tested: • Group 1: SC (250 μg)—3 pigs (no. 3, 9 and 25). • Group 2: ViaDerm and then iontophoresis was applied 5 times, each iontophoresis patch contained 22.5 mg (22.5×5; total of 112.5 mg)—3 pigs (no. 19, 20 and 21). Results

[1] = pigs, ViaDerm and Iontophoresis group, 5 consecutive patches

Substance: hGH: human growth hormone (Genotropin, Pharmacia and Upjohn)
- hGH plasma levels (SC 0.25 mg hGH, pigs, Average, 12 h): 1.1 ng/mL
- average AUC (SC 250 μg, 3 pigs): 90.3
- AUC (SC 250 μg, pig no. 3): 44 ng·h/mL
- AUC (SC 250 μg, pig no. 9): 102 ng·h/mL
- AUC (SC 250 μg, pig no. 25): 125 ng·h/mL
- Amount delivered (SC 250 μg, pigs): 250 µg
- average AUC (ViaDerm, Ionto 22.5 mg × 5, 3 pigs): 210.3
- AUC (ViaDerm, Ionto 22.5 mg × 5, pig no. 19): 138 ng·h/mL
- AUC (ViaDerm, Ionto 22.5 mg × 5, pig no. 20): 215 ng·h/mL
- AUC (ViaDerm, Ionto 22.5 mg × 5, pig no. 21): 278 ng·h/mL
- Amount delivered (ViaDerm, Ionto 22.5 mg × 5, pigs): 589 µg
- hGH plasma levels (ViaDerm, Iontoph. × 5 Total 112.5 mg hGH, pig19, 0 h): 0.04 ng/mL
- hGH plasma levels (ViaDerm, Iontoph. × 5 Total 112.5 mg hGH, pig19, 1 h): 8.39 ng/mL
- hGH plasma levels (ViaDerm, Iontoph. × 5 Total 112.5 mg hGH, pig19, 2 h): 18.46 ng/mL
- hGH plasma levels (ViaDerm, Iontoph. × 5 Total 112.5 mg hGH, pig19, 3 h): 24.50 ng/mL
- hGH plasma levels (ViaDerm, Iontoph. × 5 Total 112.5 mg hGH, pig19, 4 h): 25.34 ng/mL
- hGH plasma levels (ViaDerm, Iontoph. × 5 Total 112.5 mg hGH, pig19, 5 h): 25.27 ng/mL
- hGH plasma levels (ViaDerm, Iontoph. × 5 Total 112.5 mg hGH, pig19, 6 h): 13.34 ng/mL
- hGH plasma levels (ViaDerm, Iontoph. × 5 Total 112.5 mg hGH, pig19, 7 h): 9.63 ng/mL
- hGH plasma levels (ViaDerm, Iontoph. × 5 Total 112.5 mg hGH, pig19, 8 h): 4.03 ng/mL
- hGH plasma levels (ViaDerm, Iontoph. × 5 Total 112.5 mg hGH, pig19, 9 h): 4.08 ng/mL
- hGH plasma levels (ViaDerm, Iontoph. × 5 Total 112.5 mg hGH, pig19, 10 h): 3.32 ng/mL
- hGH plasma levels (ViaDerm, Iontoph. × 5 Total 112.5 mg hGH, pig19, 11 h): 1.42 ng/mL
- hGH plasma levels (ViaDerm, Iontoph. × 5 Total 112.5 mg hGH, pig19, 12 h): 1.38 ng/mL
- hGH plasma levels (ViaDerm, Iontoph. × 5 Total 112.5 mg hGH, pig20, 0 h): 0.06 ng/mL
- hGH plasma levels (ViaDerm, Iontoph. × 5 Total 112.5 mg hGH, pig20, 1 h): 7.01 ng/mL
- hGH plasma levels (ViaDerm, Iontoph. × 5 Total 112.5 mg hGH, pig20, 2 h): 22.45 ng/mL
- hGH plasma levels (ViaDerm, Iontoph. × 5 Total 112.5 mg hGH, pig20, 3 h): 26.93 ng/mL
- hGH plasma levels (ViaDerm, Iontoph. × 5 Total 112.5 mg hGH, pig20, 4 h): 31.04 ng/mL
- hGH plasma levels (ViaDerm, Iontoph. × 5 Total 112.5 mg hGH, pig20, 5 h): 28.21 ng/mL
- hGH plasma levels (ViaDerm, Iontoph. × 5 Total 112.5 mg hGH, pig20, 6 h): 22.09 ng/mL
- hGH plasma levels (ViaDerm, Iontoph. × 5 Total 112.5 mg hGH, pig20, 7 h): 44.00 ng/mL
- hGH plasma levels (ViaDerm, Iontoph. × 5 Total 112.5 mg hGH, pig20, 8 h): 10.69 ng/mL
- hGH plasma levels (ViaDerm, Iontoph. × 5 Total 112.5 mg hGH, pig20, 9 h): 8.98 ng/mL
- hGH plasma levels (ViaDerm, Iontoph. × 5 Total 112.5 mg hGH, pig20, 10 h): 6.49 ng/mL
- hGH plasma levels (ViaDerm, Iontoph. × 5 Total 112.5 mg hGH, pig20, 11 h): 4.91 ng/mL
- hGH plasma levels (ViaDerm, Iontoph. × 5 Total 112.5 mg hGH, pig20, 12 h): 5.01 ng/mL
- hGH plasma levels (ViaDerm, Iontoph. × 5 Total 112.5 mg hGH, pig21, 0 h): 0.08 ng/mL
- hGH plasma levels (ViaDerm, Iontoph. × 5 Total 112.5 mg hGH, pig21, 1 h): 2.68 ng/mL
- hGH plasma levels (ViaDerm, Iontoph. × 5 Total 112.5 mg hGH, pig21, 2 h): 10.38 ng/mL
- hGH plasma levels (ViaDerm, Iontoph. × 5 Total 112.5 mg hGH, pig21, 3 h): 24.52 ng/mL
- hGH plasma levels (ViaDerm, Iontoph. × 5 Total 112.5 mg hGH, pig21, 4 h): 28.87 ng/mL
- hGH plasma levels (ViaDerm, Iontoph. × 5 Total 112.5 mg hGH, pig21, 5 h): 44.93 ng/mL
- hGH plasma levels (ViaDerm, Iontoph. × 5 Total 112.5 mg hGH, pig21, 6 h): 34.25 ng/mL
- hGH plasma levels (ViaDerm, Iontoph. × 5 Total 112.5 mg hGH, pig21, 7 h): 33.54 ng/mL
- hGH plasma levels (ViaDerm, Iontoph. × 5 Total 112.5 mg hGH, pig21, 8 h): 28.93 ng/mL
- hGH plasma levels (ViaDerm, Iontoph. × 5 Total 112.5 mg hGH, pig21, 9 h): 24.89 ng/mL
- hGH plasma levels (ViaDerm, Iontoph. × 5 Total 112.5 mg hGH, pig21, 10 h): 22.46 ng/mL
- hGH plasma levels (ViaDerm, Iontoph. × 5 Total 112.5 mg hGH, pig21, 11 h): 17.86 ng/mL
- hGH plasma levels (ViaDerm, Iontoph. × 5 Total 112.5 mg hGH, pig21, 12 h): 9.00 ng/mL
- hGH plasma levels (ViaDerm, Iontoph. × 5 Total 112.5 mg hGH, pigs, Average, 0 h): 0.06 ng/mL
- hGH plasma levels (ViaDerm, Iontoph. × 5 Total 112.5 mg hGH, pigs, Average, 1 h): 6.03 ng/mL
- hGH plasma levels (ViaDerm, Iontoph. × 5 Total 112.5 mg hGH, pigs, Average, 2 h): 17.10 ng/mL
- hGH plasma levels (ViaDerm, Iontoph. × 5 Total 112.5 mg hGH, pigs, Average, 3 h): 25.32 ng/mL
- hGH plasma levels (ViaDerm, Iontoph. × 5 Total 112.5 mg hGH, pigs, Average, 4 h): 28.41 ng/mL
- hGH plasma levels (ViaDerm, Iontoph. × 5 Total 112.5 mg hGH, pigs, Average, 5 h): 32.80 ng/mL
- hGH plasma levels (ViaDerm, Iontoph. × 5 Total 112.5 mg hGH, pigs, Average, 6 h): 23.23 ng/mL
- hGH plasma levels (ViaDerm, Iontoph. × 5 Total 112.5 mg hGH, pigs, Average, 7 h): 29.06 ng/mL
- hGH plasma levels (ViaDerm, Iontoph. × 5 Total 112.5 mg hGH, pigs, Average, 8 h): 14.55 ng/mL
- hGH plasma levels (ViaDerm, Iontoph. × 5 Total 112.5 mg hGH, pigs, Average, 9 h): 12.65 ng/mL
- hGH plasma levels (ViaDerm, Iontoph. × 5 Total 112.5 mg hGH, pigs, Average, 10 h): 10.75 ng/mL
- hGH plasma levels (ViaDerm, Iontoph. × 5 Total 112.5 mg hGH, pigs, Average, 11 h): 8.06 ng/mL
- hGH plasma levels (ViaDerm, Iontoph. × 5 Total 112.5 mg hGH, pigs, Average, 12 h): 5.13 ng/mL
- average AUC value (pigs, SC group): 90.3 ng·h/mL
- AUC [1]: 210.3 ng·h/mL
- Cmax [1]: 32.8 ng/mL
- Tmax [1]: 5 to 7 h
- skin irritation at the drug and the reference electrode (pigs, ViaDerm and Iontophoresis treated group): no irritation was observed
